Reference: the DeepSol protein solubility set

experiment: soluble on expression in E. coli; label from the status in PepcDB or PDB records

Row | Sequence | soluble on expression in E. coli
1 | MSNSKDLMSEFEKLRQETSKIQYSLIQKLPSEPSSFVENQLLLETQTLCGQLLKNQEEQNILNEKLRNEQKIIKLKHNTEMKSMRDKLETLTTAQAAQKLDFERHFEMMRQSHSAKIVKMERDLRNMKYDLHSLRSDMDSRKNCENRAAPKPEFQIFVKVLGVSYAFKIHREDTVFDIKNDIEHRHDIPQHSYWLSFSGKRLEDHCSIGDYNIQKSSTITMYFRSG | not soluble
2 | MSIKKSPVYNVIAVPVEKVQANDYNPNVVAPPEMRLLELSIWEDGFTMPCVCYYDKEKDVYILVDGFHRYSVLKTSKRIFQRENGMLPIVVIEKDLSNRMSSTIRHNRARGTHN | soluble
3 | MSDDIFRLATVEDASELLKLVNSAFQPIRQLDIDWPSTRADIQMVSENIEHHSAIVLERDGKLISTITIRFPWESETPPSKYPFVWWFATLPEYKGQGAGSKLLTYVEEKVLRDMLKAPALTLGTSARKHPWLADMYRRRGYEVYFEQEKDGDIGVMMHKVLIPERFNPTLLGAPSWA | soluble
4 | LWHASIAIVGSRQPSAGGLDHSYGFAQALAARGLGIISGMAAGIDATAHEAALSIPSGHTVAVLGTGPDVPYPARHKKLHARITTDGAVISEYPPGTQPRAAHFPQRNRIIAGLALGTLVVEAGARSGALITARLAAEAGRAVFAVPGSLHNPMTRGCHQLIRQGATLVQDIDQILED | not soluble
5 | MGSDKIHHHHHHMPINKLALVRYKTIDSCLQNRFRKWTLEDLMEACSDALYEYEGMTKGISRRTIQLDIQNMRSEKLGYNAPIIVTDKKFYSYEDKGYSITNSPLTQQDLGTLVEVLDVLKQFKGFGYFQELTGMVTRLEDKLYTHQHKGKSYIDFEKNELLKGLQHIDLLHKAIINKKTVDILYQSFKAASAQNITFYPYLLKEYRNRWFILGCNKRTKATMILALDRIEQFKELRSEKYMKPDFDVATYFDDVIGVSKMPNQEPQLIVCKISKEHAPYIITKPIHASQQIIRGEKDGTVFSIHVIWNFELERELLGFGEQLQVLAPRRIQGKLRARMKRAVAAYESEKKE | not soluble
6 | SQPKLALKQLAKQGDECLKKGAWVLIFPEGTRIPVGQMGKFSRGGTALAVNAGLPVLPIAHNAGQYWPKAGWAKYPGTIQVVIGPAMHAEGEGPRAIAELNQRAEAWVSETMAEISPIQQRVSHPEPSVVS | not soluble
7 | MGSDKIHHHHHHMNDYIIEMLNITKEFPGIIANDNITLRLKKGEIHALLGENGAGKSTLMSVLFGLYQPEKGEIRKNGNTVKINNPNDANALGIGMVHQHFKLVEIFTVLENIILGVEPHALGFLQKKKAREKVVELSKQYGLEVNPDALIEKISVGMQQRVEILKMLYRDNEILIFDEPTAVLTPQEIDELMEIMRRFAKEGKSILFITHKLNEIMAVADRCTVLRKGQYVGTVDIKDTTKEELSRMMVGRDVSFRVQKETMTPGRVVLSVRNVSVPSKTSKKNAVSNVSFDVRAGEIVCLAGIDGNGQTEFVSALTGLERHTSGTITLCDQDISKASVRTRSQAGMSHIPEDRHKYGLVLDYTLEDNLVIQRYWQPQFQRFGFIRRKAVRSYAEGLIKQYDVRSGQGPLTIARSMSGGNQQKTIIGREIDKDHELLVAVQPTRGLDVGAIEYIHKQLVARRNAGKAVLLVSLELDEVMNVSDRILVMYEGEIVGELDPKTTTVQELGLYMSGAKRNLKEGSHAG | not soluble
8 | MGSDKIHHHHHHMKSIIHSTENNNFYLYDTQRILSMLIHPELKKIHEKSTDINIDAYYLKKYSYLVNHGFFGEAKPFEFKANISENSIKENITQTKVIVFEITDYCNLKCKYCSLGDLYNFSKKESKNINIKYALNFLRYIFNVKHKKTKLTISFFGGEPLVNFPAIQQIIEEAKLLNKNKKLDLMFNMTTNATLIHKYIDFIVENNIELLISFDGNEKAHSYRTYASNNKNSFHDVLMNTDMIKLKHPSYFDKYVNFNAVLNNRNSIKGIYEFIYNRYGKIPRISQLSSDHINLNKKNIFDDIFHSRKISEKEFQKEGSDVLPIVSNRLIPFNESKKFLKHYSLNLYLSNTLYLLYDLIDSFPTGTCLPFQTRIFLNTHNNLLPCEKVSYKNFLGKVNDHVFINIPEIVQRYNSYYVHCKKVCQYCYGGRACSTCLLSLDNLDQLGVEEFVCPDFQNQKTFEDKLNRIFSYLEKCPSEFFQIINHLITE | not soluble
9 | MGSDKIHHHHHHMSDLKSLATKFASDHESGKLLVLPTVWDTWSAGLVEEAGFSGLTIGSHPVADATGSSDGENMNFADYMAVVKKITSAVSIPVSVDVESGYGLSPADLIAQILEAGAVGINVEDVVHSEGKRVREAQEHADYIAAARQAADVAGVDVVINGRTDAVKLGADVFEDPMVEAIKRIKLMEQAGARSVYPVGLSTAEQVERLVDAVSVPVNITAHPVDGHGAGDLATLAGLGVRRVTFGPLWQKWLAATSAQQLKGWA | not soluble
